{"source": "paper PMC7481404", "target": "PARK2 (UniProt O60260)", "experiment": "co-IP of Flag-PARK2 and Myc-BCL-2", "details": "reference: wild type Myc-BCL-2; sites S70", "data": [{"substance": "BCL-2 (from UniProt P10415) S70A", "values": [{"measurement": "binding against the reference", "value": "lost"}]}]}
